The source of these data is US20250340613A1 (JOINT STOCK COMPANY BIOCAD, published 2025).

The target of assay [1] is T1, Macaca CSF1R_C-His, Macrophage colony-stimulating factor 1 receptor (Macaca mulatta) aa 20-513 (Macaca mulatta).
T1 construct: range 20-513
As to the kind of experiment: BLI Octet RED 384; antibody on ProA sensor, antigen 30 ug/ml (534.8 nM); response at end of association. The procedure: (§1) Experimental study of nonspecific binding of bispecific chimeric antibodies to non-target antigens was performed on Forte Bio Octert RED 384. Protein A (ProA) biosensors (ForteBio) were immersed into a solution containing antibodies at a concentration of 10 μg/ml for 150 seconds to immobilize same. The baseline was recorded in a 1×KB solution for 30 seconds. The antibody-loaded sensors were then immersed into wells containing non-target antigens at a concentration of 30 μg/ml for 150 seconds. Complex dissociation was then recorded for 30 seconds.
(§2) The reference sensors went through all the steps as the sensors used to record analyte sensograms did, with the exception of the association step—at the association step, the sensors were immersed in a kinetic buffer solution without analyte (the reference sensor signals were measured in parallel with the recording of the main sensograms). The reference signal was subtracted from the signal received on sensors interacting with the analyte during the processing of sensograms.
(§3) Sensograms were processed using ForteBio Octet Data Analysisn 9.0 software. To report no non-specific interaction, the recorded signal level was checked at the end of the association step (the response parameter).
(In general: Biolayer interferometry detects binding as a change in optical thickness at a sensor tip.)

Assay [2] has as its target T2, C-Avi-His-TEVs-HSA_hBCMA, Tumor necrosis factor receptor superfamily member 17 (Homo sapiens) aa 1-54 (Homo sapiens, UniProt Q02223 1-54).
T2 construct: range 1-54; not shown: Avi, His, TEV site and HSA parts as the name implies
T2 sequence (looked up): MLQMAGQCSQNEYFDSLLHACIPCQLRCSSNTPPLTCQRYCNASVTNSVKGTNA
As to the kind of experiment: BLI Octet RED 384; antibody on ProA sensor, antigen 30 ug/ml.

Assay [3] deals with T3, Her3-H6F, Receptor tyrosine-protein kinase erbB-3 (Homo sapiens) aa 21-643 (Homo sapiens, UniProt P21860 21-643).
T3 construct: not shown: His and FLAG tags implied by the name 'H6F'
As to the kind of experiment: BLI Octet RED 384; antibody on ProA sensor, antigen 30 ug/ml (420.8 nM); response at end of association. The procedure: as §1, §2, §3

The target of assay [4] is T4, extracellular domain of the human PD-1 protein (hPD1ex-H6F) (Homo sapiens, UniProt Q15116 21-170).
T4 construct: Molecular weight 20.6 kDa; made in CHO cells; also called hPDlex-H6F; not shown: C-terminal His and FLAG tags
In words: BLI Octet RED 384; antibody on ProA sensor, antigen 30 ug/ml (1456 nM); response at end of association. How it is done: as §1, §2, §3

For assay [5], the target named is T5, extracellular domain of the human CSF1R protein (hCSF1R_His) (Homo sapiens, UniProt P07333 20-512).
T5 construct: range 20-512; Molecular weight 57.4 kDa; made in CHO cells; also called hCSF1_His; not shown: C-terminal His and FLAG tags
In words: BLI Octet RED 384; antibody on ProA sensor, antigen in solution; 1:1 global fit. How it is done: (§4) The experiments were carried out using a kinetic buffer solution (hereinafter referred to as 1×KB) having the following formulation: 4.3 mM Na₂HPO₄; 136.9 mM NaCl, 1.5 mM KH₂PO₄; 2.7 mM KCl; the volume fraction of the added Tween 20 was 0.1%; the mass fraction of the added BSA (bovine serum albumin) was 0.1%; pH 7.4. Before the measurement, the ProA sensors were regenerated with a solution of 50 mM glycine and hydrochloric acid, pH 1.8 (5 seconds in the regenerating solution, 5 seconds in 1×KB, three repetitions). In the case of the hPD1ex-H6F and hCSF1R_His antigens, the Protein A (ProA) biosensors (ForteBio) were immersed in a solution with antibodies at a concentration of 10 μg/ml for 60 seconds to immobilize same. The baseline was recorded in 1×KB for 60 seconds. The sensors loaded with the antibody were then immersed into wells containing a solution of the target antigen (analyte) in a kinetic buffer for 90 seconds. Measurements were performed for solutions with hPDlex-H6F analyte at concentrations of 2.50 μg/ml (121.4 nM), 1.25 μg/ml (60.7 nM), 0.625 μg/ml (30.35 nM). […] Then we detected complex dissociation in 1×KB for 210 s for hPDlex-H6F, 300 s for hCSF1R_His.
(§5) All measurements were carried out at 30° C., orbital mixing speed was 1,000 revolutions per minute.
(§6) To obtain numerical values of kinetic constants (kₒₙ is the on/association rate constant, kdis is the dissociation rate constant, KD is the equilibrium dissociation constant or affinity constant), the resulting sensograms were processed according to the 1:1 interaction model using Global Fit (selection of one set of kon, kdis, KD constants to analyze several sensograms of different concentrations) of the ForteBio Octet Data Analysis 9.0 software.

The target of assay [6] is T4, extracellular domain of the human PD-1 …. Described as above. How it is done: as §4, §5, §6
In assay [7] the target is T6, biotinylated peptide [NH2]…JQS[CH2CH2]biotin comprising a fragment of the human CD20 sequence (human, [NH2] at the N-terminus; [CH2CH2]biotin at the C-terminus; the letter J at position 20 is printed so and is not a standard residue code).
T6 construct: also called CD20 peptide
As to the kind of experiment: BLI Octet RED 384; biotinylated peptide on SAX sensor, antibody in solution; 1:1 global fit. The procedure:
In the case of the biotinylated CD20 peptide, the peptide at a concentration of 5 μg/ml was immobilized on the surface of SAX sensors (High Precision Streptavidin (SAX) biosensors, ForteBio) for 120 seconds. The baseline was recorded in a 1×KB solution for 120 seconds. The sensors containing the loaded peptide were immersed into wells containing the antibody solution (analyte) in 1×KB for 15 seconds. Measurements were carried out for solutions with analyte (antibodies in the case of CD20 peptide) at concentrations of 150 μg/ml, 75 μg/ml, 37.5 μg/ml. Complex dissociation was recorded in 1×KB for 120 seconds.
as §5, §6

T3 sequence (P21860 21-643 limits assumed): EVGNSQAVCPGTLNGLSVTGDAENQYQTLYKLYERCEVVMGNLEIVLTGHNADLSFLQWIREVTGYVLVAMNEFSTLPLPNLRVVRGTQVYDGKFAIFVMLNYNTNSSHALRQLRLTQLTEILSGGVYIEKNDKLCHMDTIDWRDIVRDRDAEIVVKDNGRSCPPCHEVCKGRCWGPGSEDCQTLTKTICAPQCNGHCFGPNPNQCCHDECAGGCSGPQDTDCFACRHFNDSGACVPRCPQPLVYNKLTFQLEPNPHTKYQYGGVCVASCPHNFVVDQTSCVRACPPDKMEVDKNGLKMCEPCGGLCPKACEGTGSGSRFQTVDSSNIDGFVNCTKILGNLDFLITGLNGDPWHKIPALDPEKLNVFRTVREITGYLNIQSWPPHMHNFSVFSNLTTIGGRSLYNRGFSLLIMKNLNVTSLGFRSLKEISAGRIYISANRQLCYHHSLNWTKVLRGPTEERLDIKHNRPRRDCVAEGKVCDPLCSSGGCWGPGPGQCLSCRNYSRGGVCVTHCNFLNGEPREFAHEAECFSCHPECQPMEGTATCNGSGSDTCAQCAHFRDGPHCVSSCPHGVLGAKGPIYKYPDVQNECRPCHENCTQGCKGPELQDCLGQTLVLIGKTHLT
T5 sequence (P07333 20-512 limits assumed): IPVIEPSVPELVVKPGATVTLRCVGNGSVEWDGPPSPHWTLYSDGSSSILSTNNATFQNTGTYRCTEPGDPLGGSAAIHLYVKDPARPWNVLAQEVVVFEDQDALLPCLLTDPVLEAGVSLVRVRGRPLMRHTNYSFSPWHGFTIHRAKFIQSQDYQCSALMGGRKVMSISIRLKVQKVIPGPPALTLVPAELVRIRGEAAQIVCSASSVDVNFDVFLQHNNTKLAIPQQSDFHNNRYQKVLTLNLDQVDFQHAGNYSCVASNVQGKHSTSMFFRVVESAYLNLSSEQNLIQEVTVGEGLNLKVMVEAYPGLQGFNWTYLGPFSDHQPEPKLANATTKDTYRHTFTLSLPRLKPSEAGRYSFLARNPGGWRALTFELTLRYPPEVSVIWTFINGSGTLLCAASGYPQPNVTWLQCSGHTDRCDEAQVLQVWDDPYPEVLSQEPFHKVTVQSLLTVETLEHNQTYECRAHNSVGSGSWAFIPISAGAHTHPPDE
T6 sequence (peptide, as listed by the source): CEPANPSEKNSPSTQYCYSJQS
T4 sequence (Q15116 21-170 limits assumed, form in doubt): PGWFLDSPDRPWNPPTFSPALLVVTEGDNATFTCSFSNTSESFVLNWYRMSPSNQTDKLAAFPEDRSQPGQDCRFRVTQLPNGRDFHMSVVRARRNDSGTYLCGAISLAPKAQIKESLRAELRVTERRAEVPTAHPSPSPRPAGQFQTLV

B1: 02-006, bivalent bispecific chimeric antibody that specifically binds to PD1 and CSF1R (bispecific antibody, human IgG1, kappa, L234A L235A)
heavy 1: QVQLVQSGGGLVQPGGSLRLSCAASGFTFSSYWMYWVRQVPGKGLEWVSAIDTGGGRTYYADSVKGRFAISRVNAKNTMYLQMNSLRAEDTAVYYCARDEGGGTGWGVLKDWPYGLDAWGQGTLVTVSSASTKGPSVFPLAPSSKSTSGGTAALGCLVKDYFPEPVTVSWNSGALTSGVHTFPAVLQSSGLYSLSSVVTVPSSSLGTQTYICNVNHKPSNTKVDKRVEPKSCDKTHTCPPCPAPEAAGGPSVFLFPPKPKDTLYITREPEVTCVVVDVSHEDPEVKFNWYVDGVEVHNAKTKPREEQYNSTYRVVSVLTVLHQDWLNGKEYKCKVSNKALPAPIEKTISKAKGQPREPQVCTLPPSRDELTKNQVSLSCAVKGFYPSDIAVEWESNGQPENNYKTTPPVLDSDGSFFLVSKLTVDKSRWQQGNVFSCSVMHEALHNHYTQKSLSLSPGK
light 1: QPVLTQPLSVSVALGQTARITCGGNNIGSKNVHWYQQKPGQAPVLVIYRDSNRPSGIPERFSGSNSGNTATLTISRAQAGDEADYYCQVWDSSTAVFGTGTKLTVLQRTVAAPSVFIFPPSDEQLKSGTASVVCLLNNFYPREAKVQWKVDNALQSGNSQESVTEQDSKDSTYSLSSTLTLSKADYEKHKVYACEVTHQGLSSPVTKSFNRGEC
heavy 2: not shown
light 2: QAGLTQPPSVSVAPGQTARITCGGNNIGSKSVHWYQQKPGQAPVLVVYGDSDRPSGIPERFSGSNSGNTATLTISRVEAGDEADYYCQVWDISSDHVVFGGGTQLTVLQRQVKPEAWLSSGPSPGPGRLQLVCHVSGFYPKPVWVMWMRGEQEQQGTQLGDILPNANWTWYLRATLDVADGEAAGLSCRVKHSSLEGQDIILYWRGSC
notes: Produced in CHO cells
What is called Kd is the concentration at which binding is half-saturated. Higher therefore signals lower affinity. The koff is the rate constant with which the complex falls apart. Read a low koff as a long-lived complex. For orientation: kon means the rate constant with which the complex forms. With B1, the “Signal level (nm)” value was 0.587 nm in assay [1], -0.0115 nm in assay [3] and 0.144 nm in assay [4]. In addition, the binding result in assay [2] is recorded as “no binding (tested: 391.2 nM)”. Further, the Kd in assay [5] was 0.797 nM; in assay [6], 2.51 nM. Also, the koff came out at 0.000286 s⁻¹ in assay [5] and 0.000691 s⁻¹ in assay [6]. Also, the kon was 359000 M⁻¹ s⁻¹ in assay [5] and 275000 M⁻¹ s⁻¹ in assay [6].

B2: 02-005, bivalent bispecific chimeric antibody that specifically binds to PD1 and CD20 (bispecific antibody, human IgG1, kappa, L234A L235A)
heavy 1: EVQLVESGGGLVQPGGSLRLSCAASGYTFTSYNMHWVRQAPGKGLEWVGAIYPGNGDTSYNQKFKGRFTISVDKSKNTLYLQMNSLRAEDTAVYYCARVVYYSNSYWYFDVWGQGTLVTVSSASTKGPSVFPLAPSSKSTSGGTAALGCLVKDYFPEPVTVSWNSGALTSGVHTFPAVLQSSGLYSLSSVVTVPSSSLGTQTYICNVNHKPSNTKVDKRVEPKSCDKTHTCPPCPAPEAAGGPSVFLFPPKPKDTLYITREPEVTCVVVDVSHEDPEVKFNWYVDGVEVHNAKTKPREEQYNSTYRVVSVLTVLHQDWLNGKEYKCKVSNKALPAPIEKTISKAKGQPREPQVCTLPPSRDELTKNQVSLSCAVKGFYPSDIAVEWESNGQPENNYKTTPPVLDSDGSFFLVSKLTVDKSRWQQGNVFSCSVMHEALHNHYTQKSLSLSPGK
light 1: DIQMTQSPSSLSASVGDRVTITCRASSSVSYMHWYQQKPGKAPKPLIYAPSNLASGVPSRFSGSGSGTDFTLTISSLQPEDFATYYCQQWSFNPPTFGQGTKVEIKRTVAAPSVFIFPPSDEQLKSGTASVVCLLNNFYPREAKVQWKVDNALQSGNSQESVTEQDSKDSTYSLSSTLTLSKADYEKHKVYACEVTHQGLSSPVTKSFNRGEC
heavy 2: not shown
light 2: QPVLTQPLSVSVALGQTARITCGGNNIGSKNVHWYQQKPGQAPVLVIYRDSNRPSGIPERFSGSNSGNTATLTISRAQAGDEADYYCQVWDSSTAVFGTGTKLTVLQQRQVKPEAWLSSGPSPGPGRLQLVCHVSGFYPKPVWVMWMRGEQEQQGTQLGDILPNANWTWYLRATLDVADGEAAGLSCRVKHSSLEGQDIILYWRGSC
notes: Produced in CHO cells
With B2, the results for the “Signal level (nm)” value in assay [1], in assay [3] and in assay [4] were -0.0084 nm, -0.0128 nm and 0.139 nm, respectively. Also, the binding result in assay [2] is “no binding (tested: 391.2 nM)”. In addition, the Kd in assay [6] was found to be 5.69 nM; in assay [7], 1120 nM. The koff in assay [6] is 0.00101 s⁻¹; in assay [7], 0.342 s⁻¹. Besides, the kon amounted to 178000 M⁻¹ s⁻¹ in assay [6] and 305000 M⁻¹ s⁻¹ in assay [7].

B3: 02-007, bivalent bispecific chimeric antibody that specifically binds to PD1 and CSF1R (bispecific antibody, human IgG1, kappa, L234A L235A)
heavy 1: QVQLVESGGGLVRPGGSLRLSCAASEFTFDDYAMSWVRQAPGKGLEWVSAISWNGGSTNYADSVKGRFTISRDNAKNSLYLQMNSLRAEDTALYYCASTVEVAHRRLYKYLEVWGQGTLVTVSSASTKGPSVFPLAPSSKSTSGGTAALGCLVKDYFPEPVTVSWNSGALTSGVHTFPAVLQSSGLYSLSSVVTVPSSSLGTQTYICNVNHKPSNTKVDKRVEPKSCDKTHTCPPCPAPEAAGGPSVFLFPPKPKDTLYITREPEVTCVVVDVSHEDPEVKFNWYVDGVEVHNAKTKPREEQYNSTYRVVSVLTVLHQDWLNGKEYKCKVSNKALPAPIEKTISKAKGQPREPQVCTLPPSRDELTKNQVSLSCAVKGFYPSDIAVEWESNGQPENNYKTTPPVLDSDGSFFLVSKLTVDKSRWQQGNVFSCSVMHEALHNHYTQKSLSLSPGK
light 1: QAGLTQPPSVSVAPGQTARITCGGNNIGSKSVHWYQQKPGQAPVLVVYGDSDRPSGIPERFSGSNSGNTATLTISRVEAGDEADYYCQVWDISSDHVVFGGGTQLTVLRTVAAPSVFIFPPSDEQLKSGTASVVCLLNNFYPREAKVQWKVDNALQSGNSQESVTEQDSKDSTYSLSSTLTLSKADYEKHKVYACEVTHQGLSSPVTKSFNRGEC
heavy 2: not shown
light 2: B2 light 2
notes: Produced in CHO cells
On to B3, for which the “Signal level (nm)” value in assay [1] is 0.535 nm; in assay [3] it was -0.0063 nm; in assay [4], 0.172 nm. Besides, the binding result in assay [2] is “no binding (tested: 391.2 nM)”. Further, the Kd in assay [5] was determined as 0.831 nM; in assay [6], 4.49 nM. Also, the koff in assay [5] was found to be 0.000314 s⁻¹; in assay [6] it was 0.00109 s⁻¹. Moreover, the kon was determined as 378000 M⁻¹ s⁻¹ in assay [5] and 242000 M⁻¹ s⁻¹ in assay [6].
